Key:
[1] = molecular target: SC1918/H1 (A/South Carolina/1/1918 (H1N1)) HA ectodomain (influenza A virus A/South Carolina/1/1918 (H1N1)) (UniProt Q9WFX3); assay: SPR
[2] = molecular target: HB36.3 (HB36 Asp47Ser, Ala60Val), displayed on yeast; assay: flow cytometry on cells
[3] = molecular target: HB80 Asn36Lys, displayed on yeast; assay: flow cytometry on cells
[4] = molecular target: HB36 Asp47Ser, displayed on yeast; assay: flow cytometry on cells
[5] = molecular target: HB80.3 (HB80 Δ54–95, Asp12Gly, Ala24Ser, Met26Thr, Asn36Lys), displayed on yeast; assay: flow cytometry on cells
[6] = molecular target: HB80 Met26Thr, displayed on yeast; assay: flow cytometry on cells
[7] = molecular target: HB80 Met26Thr Asn36Lys, displayed on yeast; assay: flow cytometry on cells
[8] = molecular target: HB36.4 (HB36 Asp47Ser, Ala60Val, Asn64Lys), displayed on yeast; assay: flow cytometry on cells
[9] = molecular target: HB80 Δ54–95, Met26Thr, Asn36Lys, displayed on yeast; assay: flow cytometry on cells

Substance: HB36.3 (HB36 Asp47Ser, Ala60Val), purified from E. coli (designed binder)
- Kd [1]: 29 nM

Substance: HB36.4 (HB36 Asp47Ser, Ala60Val, Asn64Lys), purified from E. coli (designed binder)
- Kd [1]: 22 nM

Substance: HB80.3 (HB80 Δ54–95, Asp12Gly, Ala24Ser, Met26Thr, Asn36Lys), purified from E. coli (designed binder)
- Kd [1]: 38 nM

Substance: SC1918/H1 (A/South Carolina/1/1918 (H1N1)) HA ectodomain (from UniProt Q9WFX3 18-529) (domain or fragment)
- Kd [2]: 4 nM
- Kd [3]: 300 nM
- Kd [4]: 5 nM
- Kd [5]: 3 nM
- Kd [6]: 100 nM
- Kd [7]: 7.5 nM
- Kd [8]: 4 nM
- Kd [9]: 5 nM
